Assay results published in patent US20260265329A1, “POLYPEPTIDE AND DERIVATIVE THEREOF, COMPOSITION, AND USE THEREOF” (HANGZHOU SCIWIND BIOSCIENCES CO., LTD., priority 2023, published 2026).
Starred links: 1 amine or outer side, 2 acyl side, 3 side chain; linkers in the order of their positions; H or OH if unused. Non-standard residues stand in square brackets, D forms with d. Primed or numbered codes have the meaning given here. *: point of attachment. C20 diacid = O=C(O)CCCCCCCCCCCCCCCCCCC(=O)*; γGlu = O=C(O)[C@H](CCC(=O)[*:2])N[*:1]; Hyp = O=C(O)[C@@H]1C[C@@H](O)CN1; Inp′ = not defined here; Trx′ = not defined here; AEEA = NCCOCCOCC(=O)O

biological target: T1, human amylin receptor on CHO-K1/Ga15/AMY3 cells (amylin receptor/CRE-luc cell line) (human) (UniProt P30988); assay: cell-based or functional assay
T1 sequence (looked up) 1: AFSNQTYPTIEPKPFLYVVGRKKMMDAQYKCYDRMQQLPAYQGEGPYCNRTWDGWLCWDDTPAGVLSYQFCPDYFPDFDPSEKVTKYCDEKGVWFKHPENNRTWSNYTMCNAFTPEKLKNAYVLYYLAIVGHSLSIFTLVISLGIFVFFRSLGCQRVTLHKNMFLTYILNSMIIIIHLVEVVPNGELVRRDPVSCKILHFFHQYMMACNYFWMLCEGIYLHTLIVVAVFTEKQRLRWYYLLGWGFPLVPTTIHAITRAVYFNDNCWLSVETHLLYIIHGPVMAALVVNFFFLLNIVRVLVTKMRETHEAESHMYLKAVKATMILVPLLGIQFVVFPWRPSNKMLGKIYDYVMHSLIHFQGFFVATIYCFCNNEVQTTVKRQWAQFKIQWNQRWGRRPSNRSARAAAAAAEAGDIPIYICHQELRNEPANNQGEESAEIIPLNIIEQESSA
T1 sequence (looked up) 2: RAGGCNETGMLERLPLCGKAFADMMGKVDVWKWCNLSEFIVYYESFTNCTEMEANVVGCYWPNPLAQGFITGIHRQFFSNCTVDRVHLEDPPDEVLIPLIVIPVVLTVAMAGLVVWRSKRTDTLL

Row | EC50 (luciferase assay, amylin receptor/CRE-luc CHO cells) [nM] | Relative activity (the EC50 ratio of Cagrilintide to the compound) [%] | Binder
1 | 0.039 | 128 | {C20 diacid}-DASQLSTAATQRLADFLRHSSNNLKPILPPTNVGSNT[Hyp]-NH2 (SMILES CC[C@H](C)[C@H](NC(=O)[C@@H]1CCCN1C(=O)[C@H](CCCCN)NC(=O)[C@H](CC(C)C)NC(=O)[C@H](CC(N)=O)NC(=O)[C@H](CC(N)=O)NC(=O)[C@H](CO)NC(=O)[C@H](CO)NC(=O)[C@H](Cc1c[nH]cn1)NC(=O)[C@H](CCCNC(=N)N)NC(=O)[C@H](CC(C)C)NC(=O)[C@H](Cc1ccccc1)NC(=O)[C@H](CC(=O)O)NC(=O)[C@H](C)NC(=O)[C@H](CC(C)C)NC(=O)[C@H](CCCNC(=N)N)NC(=O)[C@H](CCC(N)=O)NC(=O)[C@@H](NC(=O)[C@H](C)NC(=O)[C@H](C)NC(=O)[C@@H](NC(=O)[C@H](CO)NC(=O)[C@H](CC(C)C)NC(=O)[C@H](CCC(N)=O)NC(=O)[C@H](CO)NC(=O)[C@H](C)NC(=O)[C@H](CC(=O)O)NC(=O)CCCCCCCCCCCCCCCCCCC(=O)O)[C@@H](C)O)[C@@H](C)O)C(=O)N[C@@H](CC(C)C)C(=O)N1CCC[C@H]1C(=O)N1CCC[C@H]1C(=O)N[C@H](C(=O)N[C@@H](CC(N)=O)C(=O)N[C@H](C(=O)NCC(=O)N[C@@H](CO)C(=O)N[C@@H](CC(N)=O)C(=O)N[C@H](C(=O)N1C[C@H](O)C[C@H]1C(N)=O)[C@@H](C)O)C(C)C)[C@@H](C)O) [M28]
2 | 0.122 | 412 | {C20 diacid-Trx′}-ASQLSTAATQRLADFLRHSSNNLKPILPPTNVGSNT[Hyp]-NH2 (reading uncertain) [M29]
3 | 0.039 | 130 | {C20 diacid-Inp′}-ASQLSTAATQRLADFLRHSSNNLKPILPPTNVGSNT[Hyp]-NH2 [M30]
4 | 0.168 | 30 | {C20 diacid-γGlu-AEEA-AEEA}-ASQLSTAATQRLADFLRHSSNNLKPILPPTNVGSNT[Hyp]-NH2 (SMILES CC[C@H](C)[C@H](NC(=O)[C@@H]1CCCN1C(=O)[C@H](CCCCN)NC(=O)[C@H](CC(C)C)NC(=O)[C@H](CC(N)=O)NC(=O)[C@H](CC(N)=O)NC(=O)[C@H](CO)NC(=O)[C@H](CO)NC(=O)[C@H](Cc1c[nH]cn1)NC(=O)[C@H](CCCNC(=N)N)NC(=O)[C@H](CC(C)C)NC(=O)[C@H](Cc1ccccc1)NC(=O)[C@H](CC(=O)O)NC(=O)[C@H](C)NC(=O)[C@H](CC(C)C)NC(=O)[C@H](CCCNC(=N)N)NC(=O)[C@H](CCC(N)=O)NC(=O)[C@@H](NC(=O)[C@H](C)NC(=O)[C@H](C)NC(=O)[C@@H](NC(=O)[C@H](CO)NC(=O)[C@H](CC(C)C)NC(=O)[C@H](CCC(N)=O)NC(=O)[C@H](CO)NC(=O)[C@H](C)NC(=O)COCCOCCNC(=O)COCCOCCNC(=O)CC[C@H](NC(=O)CCCCCCCCCCCCCCCCCCC(=O)O)C(=O)O)[C@@H](C)O)[C@@H](C)O)C(=O)N[C@@H](CC(C)C)C(=O)N1CCC[C@H]1C(=O)N1CCC[C@H]1C(=O)N[C@H](C(=O)N[C@@H](CC(N)=O)C(=O)N[C@H](C(=O)NCC(=O)N[C@@H](CO)C(=O)N[C@@H](CC(N)=O)C(=O)N[C@H](C(=O)N1C[C@H](O)C[C@H]1C(N)=O)[C@@H](C)O)C(C)C)[C@@H](C)O) [M31]
